Here are results for 2 substances from patent publication US20260117202A1.

“And” between values parts separate entries of the source, which are not always exact repeats. Equal values may be shown once.

One assay addresses FHS-14 (RSV strain A2) (UniProt P03420). In words: sandwich ELISA, AM14 coated, supernatant 1:10. For orientation: In an ELISA, binding on a coated surface is turned into a signal by an enzyme label.
In the next assay the target is FHS-88 (RSV strain A2) (UniProt P03420). In words: sandwich ELISA, AM14 coated, supernatant 1:10.
The next assay concerns the target FHS-42 (RSV strain A2) (UniProt P03420). In words: sandwich ELISA, AM14 coated, supernatant 1:10.
Another assay concerns the target FHS-38 (RSV strain A2) (UniProt P03420). The experiment in a line: sandwich ELISA, AM14 coated, supernatant 1:10.
A further assay deals with FHS-37 (RSV strain A2) (UniProt P03420). In words: sandwich ELISA, AM14 coated, supernatant 1:10.
For the next assay, the target named is FHM-21 (RSV strain A2) (UniProt P03420). The experiment in a line: sandwich ELISA, AM14 coated, supernatant 1:10.
For another assay, the target named is FHS-12 (RSV strain A2) (UniProt P03420). In words: sandwich ELISA, AM14 coated, supernatant 1:10.
Another assay addresses FHM-25 (RSV strain A2) (UniProt P03420). The experiment in a line: sandwich ELISA, AM14 coated, supernatant 1:10.
A further assay has as its target FHS-29 (RSV strain A2) (UniProt P03420). The experiment in a line: sandwich ELISA, AM14 coated, supernatant 1:10.
Another assay concerns the target FHS-80 (RSV strain A2) (UniProt P03420). The experiment in a line: sandwich ELISA, AM14 coated, supernatant 1:10.
Another assay deals with FHM-2 (RSV strain A2) (UniProt P03420). The experiment in a line: sandwich ELISA, AM14 coated, supernatant 1:10.
The target in a further assay is FHS-17 (RSV strain A2) (UniProt P03420). In words: sandwich ELISA, AM14 coated, supernatant 1:10.
For the next assay, the target named is FHS-31 (RSV strain A2) (UniProt P03420). In words: sandwich ELISA, AM14 coated, supernatant 1:10.
The target in the next assay is FHS-98 (RSV strain A2) (UniProt P03420). The experiment in a line: sandwich ELISA, AM14 coated, supernatant 1:10.
Another assay deals with FHS-19 (RSV strain A2) (UniProt P03420). In words: sandwich ELISA, AM14 coated, supernatant 1:10.
The target of another assay is FHS-32 (RSV strain A2) (UniProt P03420). The experiment in a line: sandwich ELISA, AM14 coated, supernatant 1:10.
Another assay deals with FHS-79 (RSV strain A2) (UniProt P03420). In words: sandwich ELISA, AM14 coated, supernatant 1:10.
The next assay has as its target FHS-95 (RSV strain A2) (UniProt P03420). In words: sandwich ELISA, AM14 coated, supernatant 1:10.
Another assay has as its target FHS-83 (RSV strain A2) (UniProt P03420). The experiment in a line: sandwich ELISA, AM14 coated, supernatant 1:10.
The target of another assay is FHS-21 (RSV strain A2) (UniProt P03420). The experiment in a line: sandwich ELISA, AM14 coated, supernatant 1:10.
A further assay concerns the target FHS-22 (RSV strain A2) (UniProt P03420). The experiment in a line: sandwich ELISA, AM14 coated, supernatant 1:10.
The next assay concerns the target FHS-72 (RSV strain A2) (UniProt P03420). The experiment in a line: sandwich ELISA, AM14 coated, supernatant 1:10.
For a further assay, the target named is FHS-54 (RSV strain A2) (UniProt P03420). The experiment in a line: sandwich ELISA, AM14 coated, supernatant 1:10.
The target of the next assay is FHS-11 (RSV strain A2) (UniProt P03420). The experiment in a line: sandwich ELISA, AM14 coated, supernatant 1:10.
A further assay concerns the target FHS-8 (RSV strain A2) (UniProt P03420). In words: sandwich ELISA, AM14 coated, supernatant 1:10.
Assay [1] has as its target FHCS-1 (RSV strain A2) (UniProt P03420). In words: ELISA; F coated 625 ng/ml; stored -80° C.
The target in assay [2] is FHCS-2 (RSV strain A2) (UniProt P03420). The experiment in a line: ELISA; F coated 10000 ng/ml; stored -80° C.
The target of assay [3] is FHCS-4 (RSV strain A2) (UniProt P03420). The experiment in a line: ELISA; F coated 10000 ng/ml; stored -80° C.
The target of assay [4] is FHCS-1 (RSV strain A2) (UniProt P03420). In words: ELISA; F coated 10000 ng/ml; stored -80° C.
Assay [5] deals with FHCS-2 (RSV strain A2) (UniProt P03420). In words: ELISA; F coated 1250 ng/ml; stored -80° C.
The target in assay [6] is FHCS-4 (RSV strain A2) (UniProt P03420). The experiment in a line: ELISA; F coated 1250 ng/ml; stored -80° C.
The target in assay [7] is FHCS-1 (RSV strain A2) (UniProt P03420). The experiment in a line: ELISA; F coated 1250 ng/ml; stored -80° C.
For assay [8], the target named is FHCS-2 (RSV strain A2) (UniProt P03420). The experiment in a line: ELISA; F coated 625 ng/ml; stored 37° C. 2 W.
Assay [9] concerns the target FHCS-4 (RSV strain A2) (UniProt P03420). In words: ELISA; F coated 625 ng/ml; stored 37° C. 2 W.
Assay [10] concerns the target FHCS-1 (RSV strain A2) (UniProt P03420). In words: ELISA; F coated 625 ng/ml; stored 37° C. 2 W.
Assay [11] has as its target FHCS-2 (RSV strain A2) (UniProt P03420). In words: ELISA; F coated 1250 ng/ml; stored 37° C. 2 W.
Assay [12] has as its target FHCS-4 (RSV strain A2) (UniProt P03420). In words: ELISA; F coated 1250 ng/ml; stored 37° C. 2 W.
The target in assay [13] is FHCS-1 (RSV strain A2) (UniProt P03420). The experiment in a line: ELISA; F coated 1250 ng/ml; stored 37° C. 2 W.
Assay [14] concerns the target FHCS-2 (RSV strain A2) (UniProt P03420). In words: ELISA; F coated 156.3 ng/ml; stored -80° C.
Assay [15] addresses FHCS-4 (RSV strain A2) (UniProt P03420). In words: ELISA; F coated 156.3 ng/ml; stored -80° C.

Turning to AM14 monoclonal antibody, the OD value with FHS-14 (RSV strain A2) came to 2.61 OD; with FHS-88 (RSV strain A2), 2.3 OD; in the assay with FHS-42 (RSV strain A2), 0.01 OD; with FHS-38 (RSV strain A2) it was 0.008 OD; with FHS-37 (RSV strain A2) it was 0.007 OD; in the assay with FHM-21 (RSV strain A2) it was 0.007 OD. For the same substance, the OD value was found to be 1.24 OD in the assay with FHS-12 (RSV strain A2); 2.42 OD in the assay with FHM-25 (RSV strain A2); 0.007 OD in the assay with FHS-29 (RSV strain A2); 0.005 OD with FHS-80 (RSV strain A2); 2.23 OD with FHM-2 (RSV strain A2); 0.009 OD with FHS-17 (RSV strain A2). Moreover, the OD value came to 0.007 OD with FHS-31 (RSV strain A2); 0.007 OD with FHS-98 (RSV strain A2); 0.007 OD with FHS-19 (RSV strain A2); 0.008 OD in the assay with FHS-32 (RSV strain A2); 0.008 OD in the assay with FHS-79 (RSV strain A2); 0.007 OD with FHS-95 (RSV strain A2). The OD value was 0.064 OD with FHS-83 (RSV strain A2); 0.008 OD with FHS-21 (RSV strain A2); 0.01 OD with FHS-22 (RSV strain A2); 0.007 OD with FHS-72 (RSV strain A2); 0.012 OD in the assay with FHS-54 (RSV strain A2); 2.04 OD with FHS-11 (RSV strain A2). Moreover, the OD value with FHS-8 (RSV strain A2) is 0.013 OD; in the assay with FHCS-1 (RSV strain A2) [1], 0.004 OD and 0.007 OD; with FHCS-2 (RSV strain A2) [2], 1.88 OD and 2.15 OD; with FHCS-4 (RSV strain A2) [3], 2.13 OD and 1.93 OD; with FHCS-1 (RSV strain A2) [4], 1.82 OD and 2.12 OD.

For the substance Synagis® (antibody), the OD value with FHCS-2 (RSV strain A2) [5] was 0.928 OD; with FHCS-4 (RSV strain A2) [6], 0.321 OD and 0.328 OD; in the assay with FHCS-1 (RSV strain A2) [7] it was 0.635 OD and 0.642 OD; in the assay with FHCS-2 (RSV strain A2) [8], 0.211 OD and 0.227 OD; with FHCS-4 (RSV strain A2) [9], 0.187 OD and 0.166 OD; with FHCS-1 (RSV strain A2) [10] it was 0.123 OD and 0.125 OD. In addition, the OD value is 0.78 OD and 0.704 OD in the assay with FHCS-2 (RSV strain A2) [11]; 0.535 OD and 0.54 OD in the assay with FHCS-4 (RSV strain A2) [12]; 0.478 OD and 0.493 OD in the assay with FHCS-1 (RSV strain A2) [13]; 0.028 OD and 0.032 OD with FHCS-2 (RSV strain A2) [14]; 0.021 OD and 0.017 OD with FHCS-4 (RSV strain A2) [15].
